Assay results taken from US20090203610A1, “METHODS OF TREATING OBESITY OR DIABETES USING NT-4/5” (RINAT NEUROSCIENCE CORPORATION, priority 2004, published 2009).

Assays:
human TrkB = target: T1, human TrkB (Homo sapiens, UniProt Q16620); test: Receptor tyrosine phosphorylation (KIRA) in TrkB expressing cell line; type: cell-based; settings: for functional binding with TrkB in the KIRA assay: single cysteine mutants
T1 construct: expressed in transfected cells
Description: Method of making pegylated NT-4/5 (S50C): The native form of NT-4/5 used in this study was produced according to the method described in U.S. Pat. No. 6,184,360. A site-directed pegylated NT-4/5 was also produced. The structure of NT-4/5 in complex with domain 5 of TrkB was examined to find amino acid side chains that would be surface available and unlikely to interfere with natural disulfide bonds and also unlikely to interfere in either the interactions between the monomer subunits of NT-4/5 or the TrkB domain 5 to create a PEG attaching site. […] […] Mutant proteins were expressed in E. coli, solubilized, extracted, purified and refolded as the native NT-4/5. To pegylate the refolded NT4-S50C, NT4-Q105C, and NT-4-E67C, first a mild reduction with 0.1 mM DTT (dithiothreitol) was performed. Excess DTT was removed by dialysis against 50 mM sodium acetate at pH 6, then a 5 molar excess of mPEG-maleimide (M. W. of 10,000 Da, SunBio, Inc., South Korea) was incubated with the protein at 37° C. for several days with gentle agitation. Pegylated protein, non-pegylated protein and unreacted PEG were separated via ion exchange or size exclusion chromatography.
(§1) Assays of TrkB specific activation by pegylated NT-4/5: Stable cell lines expressing human TrkA, TrkB or TrkC were used to determine the functional activity, i.e. receptor phosphorylation, of NT-4/5 and pegylated NT-4/5 as previously described (Sadick et al. Experimental Cell Research 234: 354-361, 1997).
as §1, with “and different forms of” for “and”

[1] = system: NONcNZO-10 polygenic obese mice; test: Non-fasting blood triglyceride level in NONcNZO-10 mice (Example 4, Table 18); type: in vivo; set-up: non-fasting blood triglyceride level: unit not given here; settings: NONcNZO-10 mice, mean
Description: (§2) Test animals: 40 male NONcNZO-10 polygenic obese mice obtained from Jackson Laboratory at 10 weeks of age weighing in the range of 26-32 g were used in this study.
(§3) Administration of NT-4/5: NT-4/5 was produced in E. coli as descried in U.S. Pat. No. 6,184,360. The mice were divided into 6 groups of equivalent body weight and baseline blood glucose distribution (6-7 mice per group). […] A “paired-fed” control group received daily injection of vehicle, but were only fed with the same amount of food the 3 mg/kg group consumed the previous day. On the day when the treatment started (day 1), a baseline blood samples were collected for measuring glucose and triglyceride. Triglyceride level was measured on day 10. At the end of the study (day 12), a terminal blood sample was collected to determine glucose, triglyceride, electrolytes (Na, K, Cl), testoterone, corticosterone, thyroid hormone (total T4) and thyroid stimulating hormone (TSH) levels. Electrolytes, free testosterone, T4 and TSH levels of serum samples were measured by AniLytics (Gaithesburg, M.D) according to the standard protocols employed by the vendor. Other analytes were measured as described above. Body weight, food intake were monitored 5 days per week through out the entire study. Daily water intake was measured from day 5 through day 7.

[2] = system: NONcNZO-10 polygenic obese mice; test: Body weight in NONcNZO-10 mice (Example 4, Table 19); type: in vivo; set-up: body weight: unit not given here; settings: NONcNZO-10 mice, mean
Description: as §2, §3

[3] = system: NONcNZO-10 polygenic obese mice; test: Food intake in NONcNZO-10 mice (Example 4, Table 20); type: in vivo; set-up: unit not given here; settings: NONcNZO-10 mice, mean
Description: as §2, §3

T1 sequence (Q16620 32-822): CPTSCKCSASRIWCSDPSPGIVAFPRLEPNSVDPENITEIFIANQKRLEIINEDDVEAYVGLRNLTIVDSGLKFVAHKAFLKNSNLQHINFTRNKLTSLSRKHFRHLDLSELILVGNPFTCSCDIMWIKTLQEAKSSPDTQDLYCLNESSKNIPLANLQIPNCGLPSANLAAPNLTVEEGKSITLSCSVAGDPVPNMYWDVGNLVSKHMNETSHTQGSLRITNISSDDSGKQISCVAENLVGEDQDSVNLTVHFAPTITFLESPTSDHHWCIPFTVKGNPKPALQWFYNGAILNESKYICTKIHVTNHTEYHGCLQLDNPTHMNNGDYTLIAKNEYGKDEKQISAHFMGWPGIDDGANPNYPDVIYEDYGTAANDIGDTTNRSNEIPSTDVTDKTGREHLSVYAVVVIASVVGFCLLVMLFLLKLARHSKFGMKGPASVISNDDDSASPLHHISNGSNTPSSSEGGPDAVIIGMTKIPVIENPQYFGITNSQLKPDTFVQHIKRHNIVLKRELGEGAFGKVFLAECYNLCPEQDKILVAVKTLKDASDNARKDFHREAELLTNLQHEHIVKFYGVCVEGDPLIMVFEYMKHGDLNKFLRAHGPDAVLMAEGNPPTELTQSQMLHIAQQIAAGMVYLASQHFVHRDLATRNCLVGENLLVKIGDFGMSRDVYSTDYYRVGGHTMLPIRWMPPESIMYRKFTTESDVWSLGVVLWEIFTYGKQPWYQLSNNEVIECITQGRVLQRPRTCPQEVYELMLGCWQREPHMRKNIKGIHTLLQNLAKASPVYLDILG

B1: S50C: single cysteine mutant of mature human NT-4/5, serine 50 to cysteine (protein)
chain: GVSETAPASRRGELAVCDAVSGWVTDRRTAVDLRGREVEVLGEVPAAGGCPLRQYFFETRCKADNAEEGGPGAGGGGCRGVDRRHWVSECKAKQSYVRALTADAQGRVGWRWIRIDTACVCTLLSRTGRA
With B1 the “functional binding with TrkB in the KIRA assay” value (from here on “functional binding with TrkB”) (human TrkB) was “found possible”.

B2: E67C: single cysteine mutant of mature human NT-4/5, glutamic acid 67 to cysteine (protein)
chain: GVSETAPASRRGELAVCDAVSGWVTDRRTAVDLRGREVEVLGEVPAAGGSPLRQYFFETRCKADNACEGGPGAGGGGCRGVDRRHWVSECKAKQSYVRALTADAQGRVGWRWIRIDTACVCTLLSRTGRA
For B2, the “functional binding with TrkB” value (human TrkB) was “found possible”.

B3: NT4 (protein)
chain: GVSETAPASRRGELAVCDAVSGWVTDRRTAVDLRGREVEVLGEVPAAGGSPLRQYFFETRCKADNAEEGGPGAGGGGCRGVDRRHWVSECKAKQSYVRALTADAQGRVGWRWIRIDTACVCTLLSRTGRA
In the case of B3, the “non-fasting blood triglyceride level” value ([1]; 0.1 mg/kg s.c. daily, Day 1 (baseline)) is reported as 291.7, the “non-fasting blood triglyceride level” value ([1]; 0.1 mg/kg s.c. daily, Day 10) is reported as 172.7 and the “non-fasting blood triglyceride level” value ([1]; 0.3 mg/kg s.c. daily, Day 1 (baseline)) is reported as 279.3. For the same molecule, the “non-fasting blood triglyceride level” value ([1]; 0.3 mg/kg s.c. daily, Day 10) was 208.0, the “non-fasting blood triglyceride level” value ([1]; 1 mg/kg s.c. daily, Day 1 (baseline)) was 307.7 and the “non-fasting blood triglyceride level” value ([1]; 1 mg/kg s.c. daily, Day 10) was 226.3. For the same molecule, the “non-fasting blood triglyceride level” value ([1]; 3 mg/kg s.c. daily, Day 1 (baseline)) was 306.1, the “non-fasting blood triglyceride level” value ([1]; 3 mg/kg s.c. daily, Day 10) was 226.3 and the body weight ([2]; 0.1 mg/kg s.c., Day 1) was 100.0. The body weight ([2]; 0.1 mg/kg s.c., Day 2) was 97.7, the body weight ([2]; 0.1 mg/kg s.c., Day 3) was 100.0 and the body weight ([2]; 0.1 mg/kg s.c., Day 4) was 102.2. It also gave a body weight ([2]; 0.1 mg/kg s.c., Day 5) of 104.5, a body weight ([2]; 0.1 mg/kg s.c., Day 8) of 102.2 and a body weight ([2]; 0.1 mg/kg s.c., Day 9) of 102.8. It also gave a body weight ([2]; 0.1 mg/kg s.c., Day 10) of 103.3, a body weight ([2]; 0.1 mg/kg s.c., Day 11) of 105.1 and a body weight ([2]; 0.3 mg/kg s.c., Day 1) of 100.0. The body weight ([2]; 0.3 mg/kg s.c., Day 2) was 98.3, the body weight ([2]; 0.3 mg/kg s.c., Day 3) was 98.9 and the body weight ([2]; 0.3 mg/kg s.c., Day 4) was 100.6. The body weight ([2]; 0.3 mg/kg s.c., Day 5) was 101.8, the body weight ([2]; 0.3 mg/kg s.c., Day 8) was 101.2 and the body weight ([2]; 0.3 mg/kg s.c., Day 9) was 102.4. For the same molecule, the body weight ([2]; 0.3 mg/kg s.c., Day 10) was 102.9, the body weight ([2]; 0.3 mg/kg s.c., Day 11) was 104.1 and the body weight ([2]; 1 mg/kg s.c., Day 1) was 100.0. It also gave a body weight ([2]; 1 mg/kg s.c., Day 2) of 97.1, a body weight ([2]; 1 mg/kg s.c., Day 3) of 94.8 and a body weight ([2]; 1 mg/kg s.c., Day 4) of 98.2. It also gave a body weight ([2]; 1 mg/kg s.c., Day 5) of 99.2, a body weight ([2]; 1 mg/kg s.c., Day 8) of 97.7 and a body weight ([2]; 1 mg/kg s.c., Day 9) of 97.6. For the same molecule, the body weight ([2]; 1 mg/kg s.c., Day 10) was 97.6, the body weight ([2]; 1 mg/kg s.c., Day 11) was 99.0 and the body weight ([2]; 3 mg/kg s.c., Day 1) was 100.0. It also gave a body weight ([2]; 3 mg/kg s.c., Day 2) of 95.6, a body weight ([2]; 3 mg/kg s.c., Day 3) of 94.6 and a body weight ([2]; 3 mg/kg s.c., Day 4) of 94.6. The body weight ([2]; 3 mg/kg s.c., Day 5) was 94.6, the body weight ([2]; 3 mg/kg s.c., Day 8) was 92.2 and the body weight ([2]; 3 mg/kg s.c., Day 9) was 92.2. It also gave a body weight ([2]; 3 mg/kg s.c., Day 10) of 92.7, a body weight ([2]; 3 mg/kg s.c., Day 11) of 92.6 and a food intake ([3]; 0.1 mg/kg s.c., Day 1) of 5.17. The food intake ([3]; 0.1 mg/kg s.c., Day 2) was 5.50, the food intake ([3]; 0.1 mg/kg s.c., Day 3) was 5.83 and the food intake ([3]; 0.1 mg/kg s.c., Day 4) was 6.00. It also gave a food intake ([3]; 0.1 mg/kg s.c., Day 5) of 5.50, a food intake ([3]; 0.1 mg/kg s.c., Day 8) of 4.50 and a food intake ([3]; 0.1 mg/kg s.c., Day 9) of 4.83. For the same molecule, the food intake ([3]; 0.1 mg/kg s.c., Day 10) was 5.00, the food intake ([3]; 0.3 mg/kg s.c., Day 1) was 5.32 and the food intake ([3]; 0.3 mg/kg s.c., Day 2) was 5.67. For the same molecule, the food intake ([3]; 0.3 mg/kg s.c., Day 3) was 5.33, the food intake ([3]; 0.3 mg/kg s.c., Day 4) was 5.67 and the food intake ([3]; 0.3 mg/kg s.c., Day 5) was 4.83. It also gave a food intake ([3]; 0.3 mg/kg s.c., Day 8) of 4.33, a food intake ([3]; 0.3 mg/kg s.c., Day 9) of 4.50 and a food intake ([3]; 0.3 mg/kg s.c., Day 10) of 4.67. It also gave a food intake ([3]; 1 mg/kg s.c., Day 1) of 5.07, a food intake ([3]; 1 mg/kg s.c., Day 2) of 5.43 and a food intake ([3]; 1 mg/kg s.c., Day 3) of 4.86. The food intake ([3]; 1 mg/kg s.c., Day 4) was 4.71, the food intake ([3]; 1 mg/kg s.c., Day 5) was 4.43 and the food intake ([3]; 1 mg/kg s.c., Day 8) was 3.93. The food intake ([3]; 1 mg/kg s.c., Day 9) was 4.00, the food intake ([3]; 1 mg/kg s.c., Day 10) was 4.14 and the food intake ([3]; 3 mg/kg s.c., Day 1) was 5.13. For the same molecule, the food intake ([3]; 3 mg/kg s.c., Day 2) was 4.86, the food intake ([3]; 3 mg/kg s.c., Day 3) was 4.29 and the food intake ([3]; 3 mg/kg s.c., Day 4) was 4.29. The food intake ([3]; 3 mg/kg s.c., Day 5) was 4.00, the food intake ([3]; 3 mg/kg s.c., Day 8) was 3.86 and the food intake ([3]; 3 mg/kg s.c., Day 9) was 3.57. It also gave a food intake ([3]; 3 mg/kg s.c., Day 10) of 3.86.

B4: Pegylated NT-4/5(E67C): NT-4/5 with glutamic acid 67 changed to cysteine, pegylated with mPEG-maleimide (10,000 Da) (conjugate)
chain: GVSETAPASRRGELAVCDAVSGWVTDRRTAVDLRGREVEVLGEVPAAGGSPLRQYFFETRCKADNACEGGPGAGGGGCRGVDRRHWVSECKAKQSYVRALTADAQGRVGWRWIRIDTACVCTLLSRTGRA
For B4, the “receptor tyrosine phosphorylation of TrkB-expressing cell line” value (human TrkB) was “active in activating TrkB receptor”.

B5: Q105C: single cysteine mutant of mature human NT-4/5 at position 105 (protein)
chain: GVSETAPASRRGELAVCDAVSGWVTDRRTAVDLRGREVEVLGEVPAAGGSPLRQYFFETRCKADNAEEGGPGAGGGGCRGVDRRHWVSECKAKQSYVRALTADACGRVGWRWIRIDTACVCTLLSRTGRA
For B5, the “functional binding with TrkB” value (human TrkB) was “found possible”.
